Tests used:
[1] = biological target: T1, SPP–myc (signal peptide peptidase, myc-tagged) (human), Q8TCT9; assay: SDS/PAGE; conditions: remark: other sources report otherwise
T1 chain: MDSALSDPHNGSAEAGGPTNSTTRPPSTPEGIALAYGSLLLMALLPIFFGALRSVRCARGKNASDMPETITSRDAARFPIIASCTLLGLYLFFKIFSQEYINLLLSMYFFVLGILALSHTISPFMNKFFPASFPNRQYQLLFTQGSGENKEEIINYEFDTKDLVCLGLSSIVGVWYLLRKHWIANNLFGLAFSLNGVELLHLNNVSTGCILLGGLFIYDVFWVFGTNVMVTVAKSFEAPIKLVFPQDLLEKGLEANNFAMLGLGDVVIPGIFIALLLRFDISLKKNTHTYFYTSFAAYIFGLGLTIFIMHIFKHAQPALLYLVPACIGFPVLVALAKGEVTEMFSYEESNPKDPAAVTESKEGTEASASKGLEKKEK

native gel or EMSA = biological target: the molecule itself; assay: native gel or EMSA

Binder | stoichiometry N [1] | stoichiometry N (native gel or EMSA)
SPP–myc (signal peptide peptidase, myc-tagged), Q8TCT9 1-377 (enzyme) MDSALSDPHNGSAEAGGPTNSTTRPPSTPEGIALAYGSLLLMALLPIFFGALRSVRCARGKNASDMPETITSRDAARFPIIASCTLLGLYLFFKIFSQEYINLLLSMYFFVLGILALSHTISPFMNKFFPASFPNRQYQLLFTQGSGENKEEIINYEFDTKDLVCLGLSSIVGVWYLLRKHWIANNLFGLAFSLNGVELLHLNNVSTGCILLGGLFIYDVFWVFGTNVMVTVAKSFEAPIKLVFPQDLLEKGLEANNFAMLGLGDVVIPGIFIALLLRFDISLKKNTHTYFYTSFAAYIFGLGLTIFIMHIFKHAQPALLYLVPACIGFPVLVALAKGEVTEMFSYEESNPKDPAAVTESKEGTEASASKGLEKKEK | 2 | –
SPP^D/A–myc (SPP-D265A, catalytically inactive, myc-tagged) (enzyme) MDSALSDPHNGSAEAGGPTNSTTRPPSTPEGIALAYGSLLLMALLPIFFGALRSVRCARGKNASDMPETITSRDAARFPIIASCTLLGLYLFFKIFSQEYINLLLSMYFFVLGILALSHTISPFMNKFFPASFPNRQYQLLFTQGSGENKEEIINYEFDTKDLVCLGLSSIVGVWYLLRKHWIANNLFGLAFSLNGVELLHLNNVSTGCILLGGLFIYDVFWVFGTNVMVTVAKSFEAPIKLVFPQDLLEKGLEANNFAMLGLGAVVIPGIFIALLLRFDISLKKNTHTYFYTSFAAYIFGLGLTIFIMHIFKHAQPALLYLVPACIGFPVLVALAKGEVTEMFSYEESNPKDPAAVTESKEGTEASASKGLEKKEK | – | 2

— article PMC2860808 (Biochemical Journal, 2010)
